# Test results from US6358897B1, “Alkyl trypsin compositions and methods of use in contact lens cleaning and disinfecting systems” (Alcon Laboratories, Inc., priority 1996, dated 2002).
# Experiments:
# azocasein [1] = test: Stability of Me-trypsin, trypsin and pancreatin in a disinfecting composition (Example 5C), azocasein method; format: physicochemical; conditions: for % Activity Remaining: Example 5C composition, 50 μg/ml (pancreatin 375 μg/ml)
# Method: Azocasein Method The following solutions are used in this assay: 1) Buffer solution: 0.05 M sodium phosphate buffer containing 0.9% sodium chloride, pH 7.6. 2) Substrate solution: 2 mg/ml azocasein in the buffer solution mentioned above. The assay is initiated by mixing 1 ml of an appropriately diluted (such that the enzyme activity is in the range of standard curve) enzyme composition in phosphate buffer with 2 ml of azocasein substrate solution (2 mg/ml). After incubation at 37° C. for 20 minutes, the mixture is removed from the incubator and 1 ml of trichloroacetic acid to (14% w/v) is added to stop the enzyme reaction. The mixture is vortexed well and allowed to stand at room temperature for 20 minutes. After centrifuging at 2500 rpm (with a Beckman GS-6R Centrifuge) for 15 minutes, the supernatant is filtered with a serum sampler. 2 ml of the clear yellow filtrate is then adjusted to a neutral pH with 2 ml of 0.5 N sodium hydroxide and the absorbance of 440 nm wavelength light is measured with a spectrophotometer. The amount of azocasein hydrolyzed is calculated based on a standard curve of known concentrations of azocasein solution developed under identical conditions. An enzyme activity unit (“AZ U”) is defined as that amount of enzyme which hydrolyzes 1 μg of azocasein substrate/minute at 37° C. The following is an example of the stability of Me-trypsin in a disinfecting composition of the present invention as compared to analogous compositions containing trypsin or pancreatin. The enzymes were solubilized in the Example 5C composition. The compositions were stored at room temperature or 30° C. for up to 42 days. At various time points, enzyme activity was assayed using the azocasein method.
# azocasein [2] = test: Thermal stability of Me-trypsin and trypsin in a disinfecting solution (Example 5C), azocasein method; format: physicochemical; conditions: Example 5C composition, 50 μg/ml
# Method: Azocasein Method The following solutions are used in this assay: 1) Buffer solution: 0.05 M sodium phosphate buffer containing 0.9% sodium chloride, pH 7.6. 2) Substrate solution: 2 mg/ml azocasein in the buffer solution mentioned above. The assay is initiated by mixing 1 ml of an appropriately diluted (such that the enzyme activity is in the range of standard curve) enzyme composition in phosphate buffer with 2 ml of azocasein substrate solution (2 mg/ml). After incubation at 37° C. for 20 minutes, the mixture is removed from the incubator and 1 ml of trichloroacetic acid to (14% w/v) is added to stop the enzyme reaction. The mixture is vortexed well and allowed to stand at room temperature for 20 minutes. After centrifuging at 2500 rpm (with a Beckman GS-6R Centrifuge) for 15 minutes, the supernatant is filtered with a serum sampler. 2 ml of the clear yellow filtrate is then adjusted to a neutral pH with 2 ml of 0.5 N sodium hydroxide and the absorbance of 440 nm wavelength light is measured with a spectrophotometer. The amount of azocasein hydrolyzed is calculated based on a standard curve of known concentrations of azocasein solution developed under identical conditions. An enzyme activity unit (“AZ U”) is defined as that amount of enzyme which hydrolyzes 1 μg of azocasein substrate/minute at 37° C. The following is an example of the stability of Me-trypsin in a disinfecting composition of the present invention as compared to an analogous composition containing trypsin. The enzymes were solubilized in the Example 5C composition. The two compositions were incubated at 35° C. or 40° C. At the appointed time, aliquots were tested for enzyme activity by the azocasein method. Activity levels were compared with initial levels and expressed as percent remaining activity.
# lysozyme deposits = test: Cleaning efficacy on lysozyme-deposited contact lenses, fluorescence method; conditions: for Lysozyme, Total: hydrolysate plus ACN/TFA extract; for Lysozyme, ACN/TFA Extract: lens extract after overnight cleaning at room temperature; for % Cleaning Efficacy: overnight soak at room temperature, no rubbing; for Lysozyme, Hydrolysate: soaking solution after overnight cleaning at room temperature
# Method: The following example illustrates the cleaning efficacy of a multi-purpose composition (Example 6) of the present invention. The cleaning efficacy was determined using the following protocol. 1. Physiological/Thermal Combination Model Each lens was first soaked in a 5 ml lysozyme solution (native or C14-labeled, 1.0 mg/ml in 0.05M phosphate buffer containing 0.9% sodium chloride, pH 7.4) at 37° C. for 24 hours, then removed to a saline solution (2 ml) and heated at 90° C. for 15 minutes. 2. Cleaning and Assessment of Lysozyme Deposits Each deposited lens was placed in a 5 ml of a test solution and agitated in a rotary shaker at room temperature overnight (usually >12 hours). The compositions tested were: 1) the Example 6 composition (Me-trypsin), 2) 1 drop of Example 3B (except Me-trypsin was replaced by trypsin) in 5 mL of the Example 2B composition and 3) 1 drop of Supraclens® Daily Protein Remover (pancreatin) in 5 mL of the Example 2B composition. After rinsing the lens by dipping three times in three consecutive 40 ml saline solution, the lens was subjected to extraction with 5 ml ACN/TFA solution (acetonitrile/trifluoroacetic acid/water: 500/1/500 v/v) for at least 2 hours. No mechanical rubbing was applied to the cleaning regimen. Both the extract and the soaking solution were then assessed for lysozyme by the protein intrinsic fluorescence method using a fluorescence spectrophotometer (excitation wavelength is 280 nm, emission wavelength is 354 nm), or by a scintillation counter for the C14-lysozyme. The quantification of lysozyme was based on a lysozyme standard curve established using the same vehicle and instrumental setting used for the lens extract and lens soaking solution. The results are show in Tables 9-10.
Substance,"% Activity Remaining (azocasein [1]; 30° C., 1 day)","% Activity Remaining (azocasein [1]; 30° C., 2 days)","% Activity Remaining (azocasein [1]; 30° C., 5 days)","% Activity Remaining (azocasein [1]; 30° C., 7 days)","% Activity Remaining (azocasein [1]; 30° C., 14 days)","% Activity Remaining (azocasein [1]; RT, 1 day)","% Activity Remaining (azocasein [1]; RT, 2 days)","% Activity Remaining (azocasein [1]; RT, 5 days)","% Activity Remaining (azocasein [1]; RT, 7 days)","% Activity Remaining (azocasein [1]; RT, 14 days)","% Activity Remaining (azocasein [1]; RT, 21 days)","% Activity Remaining (azocasein [1]; RT, 28 days)","% Activity Remaining (azocasein [1]; RT, 35 days)","% Activity Remaining (azocasein [1]; RT, 42 days)","% Activity Remaining (azocasein [2]; 35° C., 24 hrs)","% Activity Remaining (azocasein [2]; 35° C., 48 hrs)","% Activity Remaining (azocasein [2]; 35° C., 72 hrs)","% Activity Remaining (azocasein [2]; 35° C., 168 hrs)","% Activity Remaining (azocasein [2]; 40° C., 24 hrs)","% Activity Remaining (azocasein [2]; 40° C., 114 hrs)",also measured
methyl trypsin [Me-Trypsin],99.7%,97.8%,96.1%,93.5%,91.8%,100.9%,100.8%,97.9%,99.4%,100.0%,98.5%,96.6%,96.5%,94.0%,97.6%,96.4%,91.6%,87.3%,88.9%,75.2%,"% Activity Remaining (azocasein [1]; 30° C., 21 days): 86.7%; % Activity Remaining (azocasein [1]; 30° C., 28 days): 82.7%; % Activity Remaining (azocasein [1]; 30° C., 35 days): 80.0%; % Activity Remaining (azocasein [1]; 30° C., 42 days): 76.3%; stability in a disinfecting composition over analogous compositions containing trypsin or pancreatin (azocasein [1]; summary of Table 2): superior stability; % Activity Remaining (azocasein [2]; 40° C., 168 hrs): 67.0%; Lysozyme, Total (lysozyme deposits): 274.35 μg/Lens; Lysozyme, ACN/TFA Extract (lysozyme deposits): 72.90 μg/Lens; % Cleaning Efficacy (lysozyme deposits): 73.4%; Lysozyme, Hydrolysate (lysozyme deposits): 201.45 μg/Lens"
"Trypsin [Native Trypsin, reference compound]",90.8%,78.7%,66.7%,62.4%,52.4%,102.5%,101.5%,98.5%,93.6%,85.7%,79.6%,74.4%,73.8%,61.3%,69.9%,55.9%,48.5%,37.6%,42.4%,19.4%,"% Activity Remaining (azocasein [2]; 40° C., 168 hrs): 17.4%; Lysozyme, Total (lysozyme deposits): 317.40 μg/Lens; Lysozyme, ACN/TFA Extract (lysozyme deposits): 83.92 μg/Lens; % Cleaning Efficacy (lysozyme deposits): 73.6%; Lysozyme, Hydrolysate (lysozyme deposits): 233.45 μg/Lens"
